Laboratory results: article PMC4167697
Several values for one entry are separate records, joined by “and”; a condition that tells them apart may be missing. Equal entries are not always repeated.

Assays:
[1] = molecular target: protein G B1; assay: BLI; kinetic titration series; GB1 amine-coupled on AR2G sensors, IgG as analyte at 0.03125-0.5 µM in turn on one sensor; PBS with 0.05% Polysorbat 20, 25°C, 1000 rpm; each sensor pair fitted separately, 1:1 kinetic titration series model with RI-term
[2] = molecular target: protein G B1; assay: as above; remark: listed apart in the source
[3] = molecular target: protein G B1; assay: as above; remark: listed apart in the source
[4] = molecular target: protein G B1; assay: BLI; parallel sensor kinetics; GB1 amine-coupled on AR2G sensors, IgG as analyte at 0.03125-0.5 µM on five sensors in parallel; PBS with 0.05% Polysorbat 20, 25°C, 1000 rpm; global 1:1 fit with RI-term
[5] = molecular target: protein G B1; assay: BLI; kinetic titration series; GB1 amine-coupled on AR2G sensors, IgG as analyte at 0.03125-0.5 µM in turn on one sensor; PBS with 0.05% Polysorbat 20, 25°C, 1000 rpm; each sensor pair fitted separately, 1:1 kinetic titration series model with RI-term; remark: listed apart in the source
[6] = molecular target: protein G B1; assay: as above; remark: listed apart in the source
[7] = molecular target: protein G B1; assay: as above; remark: listed apart in the source
[8] = molecular target: protein G B1; assay: BLI; kinetic titration series, fitted without RI term (Figure S3B); GB1 on AR2G sensors, IgG as analyte
[9] = molecular target: protein G B1; assay: BLI; kinetic titration series; GB1 amine-coupled on AR2G sensors, IgG as analyte at 0.03125-0.5 µM in turn on one sensor; PBS with 0.05% Polysorbat 20, 25°C, 1000 rpm; each sensor pair fitted separately, 1:1 kinetic titration series model with RI-term; remark: listed apart in the source
[10] = molecular target: protein G B1; assay: BLI; parallel sensor kinetics, fitted without RI term (Figure S3A); GB1 on AR2G sensors, IgG as analyte
[11] = molecular target: protein G B1; assay: BLI; kinetic titration series; GB1 amine-coupled on AR2G sensors, IgG as analyte at 0.03125-0.5 µM in sequence on one sensor; PBS with 0.05% Polysorbat 20, 25°C, 1000 rpm; 1:1 kinetic titration series model with RI-term; mean of 7 replicates
[12] = molecular target: protein G B1; assay: BLI; parallel sensor kinetics; GB1 amine-coupled on AR2G sensors, IgG as analyte at 0.03125-0.5 µM, one sensor for each concentration; PBS with 0.05% Polysorbat 20, 25°C, 1000 rpm; global 1:1 binding model with RI-term; two measurements (#1, #2)

rabbit IgG (ID: ABIN376828; Antibodies-Online) (antibody)
Kd [1]: 87.7 nM
koff [1]: 0.00601 s⁻¹
kon [1]: 68500 M⁻¹ s⁻¹
Kd [2]: 266 nM
koff [2]: 0.00606 s⁻¹
kon [2]: 22800 M⁻¹ s⁻¹
Kd [3]: 166 nM
koff [3]: 0.00476 s⁻¹
kon [3]: 28700 M⁻¹ s⁻¹
koff [4]: 0.00702 s⁻¹
kon [4]: 45100 M⁻¹ s⁻¹
Kd [5]: 254 nM
koff [5]: 0.00467 s⁻¹
kon [5]: 18400 M⁻¹ s⁻¹
Kd [6]: 124 nM
koff [6]: 0.00551 s⁻¹
kon [6]: 44300 M⁻¹ s⁻¹
Kd [7]: 164 nM
koff [7]: 0.00485 s⁻¹
kon [7]: 29700 M⁻¹ s⁻¹
Kd [8]: 107 nM
koff [8]: 0.00185 s⁻¹
kon [8]: 17300 M⁻¹ s⁻¹
Kd [9]: 50.4 nM
koff [9]: 0.0016 s⁻¹
kon [9]: 31800 M⁻¹ s⁻¹
Kd [10]: 186 nM
koff [10]: 0.00317 s⁻¹
kon [10]: 17000 M⁻¹ s⁻¹

rabbit immunoglobulin G (antibody)
Kd [11]: 159 nM
Kd [12]: 156 nM and 253 nM
